# Laboratory results reported in PMC3466309, “Initial Characterization of the Pf-Int Recombinase from the Malaria Parasite Plasmodium falciparum”.
# B1: Selex8 (dsDNA)
# DNA 1: CAAACACACTGTGCGCGCGTCG
# DNA 2: CGACGCGCGCACAGTGTGTTTG
# Tests used:
# Pf-Int-C162 = molecular target: T1, Pf-Int-C162 (Plasmodium falciparum 3D7, UniProt C0H5A8 162-490); assay: EMSA; 10 ug/ml poly(dI-dC); EMSA: 50 mM Tris pH 8, 150 mM NaCl, 0.1 mM EDTA, 5 mM DTT, 50 ug/ml BSA, 2% glycerol, 0.5% Tween 20, 10 ug/ml poly(dI-dC) unless omitted, 10 nM DNA, 20 min at 20 C; 5% gel in 0.5x TBE at 18 C; conditions: protein: recombinant; tags: N- or C-terminal His6 versions; label: 5'-DY682 on strand 1; blunt
# T1 sequence: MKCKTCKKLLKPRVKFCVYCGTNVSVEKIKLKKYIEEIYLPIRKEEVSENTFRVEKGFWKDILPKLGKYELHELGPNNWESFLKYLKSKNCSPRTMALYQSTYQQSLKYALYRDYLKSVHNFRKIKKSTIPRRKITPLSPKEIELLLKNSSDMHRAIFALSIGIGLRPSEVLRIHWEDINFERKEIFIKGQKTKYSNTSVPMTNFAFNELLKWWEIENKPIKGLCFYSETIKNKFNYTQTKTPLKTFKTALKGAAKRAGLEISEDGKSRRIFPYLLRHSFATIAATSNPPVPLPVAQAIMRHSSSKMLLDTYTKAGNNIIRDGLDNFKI
# His6-Pf-Int-C192 = molecular target: T2, His6-Pf-Int-C192 (Plasmodium falciparum 3D7, UniProt C0H5A8 192-490); assay: EMSA supershift; 0.04 or 0.2 uM protein; anti-Pf-Int disrupts, anti-His5 supershifts; EMSA: 50 mM Tris pH 8, 150 mM NaCl, 0.1 mM EDTA, 5 mM DTT, 50 ug/ml BSA, 2% glycerol, 0.5% Tween 20, 10 ug/ml poly(dI-dC) unless omitted, 10 nM DNA, 20 min at 20 C; 5% gel in 0.5x TBE at 18 C; conditions: protein: recombinant; tags: N-terminal His6; label: 5'-DY682 on strand 1; blunt
# T2 sequence: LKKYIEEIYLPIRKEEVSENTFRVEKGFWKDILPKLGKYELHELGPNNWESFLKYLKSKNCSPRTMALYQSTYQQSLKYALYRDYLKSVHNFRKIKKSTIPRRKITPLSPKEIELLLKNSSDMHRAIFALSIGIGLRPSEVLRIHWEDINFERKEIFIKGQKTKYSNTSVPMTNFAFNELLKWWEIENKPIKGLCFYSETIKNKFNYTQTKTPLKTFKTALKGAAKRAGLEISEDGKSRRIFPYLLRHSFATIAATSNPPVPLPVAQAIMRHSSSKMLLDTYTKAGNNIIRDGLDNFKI
# Pf-Int-C192 = molecular target: T3, Pf-Int-C192 (Plasmodium falciparum 3D7, UniProt C0H5A8 192-490); assay: EMSA; 10 ug/ml poly(dI-dC); max shift at ~15-fold higher protein/DNA ratio than without; EMSA: 50 mM Tris pH 8, 150 mM NaCl, 0.1 mM EDTA, 5 mM DTT, 50 ug/ml BSA, 2% glycerol, 0.5% Tween 20, 10 ug/ml poly(dI-dC) unless omitted, 10 nM DNA, 20 min at 20 C; 5% gel in 0.5x TBE at 18 C; conditions: protein: recombinant; label: 5'-DY682 on strand 1; blunt
# T3 sequence: T2 sequence
binder,measurement,setting,value
B1,binding result,Pf-Int-C162,no binding
same,binding result,His6-Pf-Int-C192,binds
same,binding result,Pf-Int-C192,binds
